Measurements published in patent KR20230108156A (dated 2023).

Experiments:
[1] = molecular target: CD40L on CD40L 표면발현 CHO 세포 (CHO cells expressing CD40L on the surface, ATCC) (UniProt P29965); assay: flow cytometry on CD40L CHO cells, 0.01-0.5 μg/test
[2] = molecular target: T1, CD40 on CD40 표면발현 CHO 세포 (CHO cells expressing CD40 on the surface, ATCC) (UniProt P25942 21-277, limits assumed); assay: flow cytometry on CD40 CHO cells, goat anti-mouse Ig-FITC
T1 construct: whole, on cells; also called CD40 CHO 세포
T1 sequence (P25942 21-277 limits assumed): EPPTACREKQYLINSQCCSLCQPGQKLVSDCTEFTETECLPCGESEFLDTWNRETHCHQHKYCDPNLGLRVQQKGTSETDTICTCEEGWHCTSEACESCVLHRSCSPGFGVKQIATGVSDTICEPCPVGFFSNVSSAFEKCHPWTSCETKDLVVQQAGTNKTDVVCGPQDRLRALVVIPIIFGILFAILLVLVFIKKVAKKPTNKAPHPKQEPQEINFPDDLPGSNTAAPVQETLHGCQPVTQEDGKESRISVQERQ

[3] = molecular target: 재조합 인간 CD40L 단백질 (recombinant human CD40L protein, Sino biological, Accession#: NP_000065.1, Cat: 10239-H08E) (human) (UniProt P29965); assay: ELISA, plate coated with recombinant human CD40L 100 ng/well, 14D6 two-fold dilutions from 1000 ng/ml, anti-mouse IgG-HRP
[4] = molecular target: T2, CD40L in lysates of Jurkat cells and HeLaS3 cells (32 ~ 39 kDa band) (human, UniProt P29965 1-261); assay: western blot of Jurkat and HeLaS3 lysates, reducing and non-reducing, 14D6 0.5 μg/ml
T2 construct: Denatured protein on a PVDF membrane
T2 sequence (looked up): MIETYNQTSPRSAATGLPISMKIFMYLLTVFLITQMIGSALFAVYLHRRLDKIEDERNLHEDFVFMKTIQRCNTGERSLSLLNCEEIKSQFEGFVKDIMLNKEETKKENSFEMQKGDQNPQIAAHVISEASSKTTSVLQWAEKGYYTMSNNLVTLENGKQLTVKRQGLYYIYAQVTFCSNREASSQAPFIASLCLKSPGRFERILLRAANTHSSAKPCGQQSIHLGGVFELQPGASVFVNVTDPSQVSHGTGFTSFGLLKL

[5] = molecular target: 재조합 인간 CD40L 단백질 (recombinant human CD40L protein, Sino biological, Accession#: NP_000065.1, Cat: 10239-H08E) (human) (UniProt P29965); assay: cell-based or functional assay
[6] = molecular target: CD40L on CD40L 표면발현 CHO 세포 (CHO cells expressing CD40L on the surface, ATCC) (UniProt P29965); assay: cell-based or functional assay
[7] = molecular target: T3, CD40L induced on T cells of human PBMC stimulated with PMA and ionomycin (human, UniProt P29965 1-261); assay: flow cytometry on PMA/ionomycin-stimulated human PBMC, 0.1 μg, CD3-APC gate, anti-mouse Ig-FITC
T3 construct: whole, on cells
T3 sequence (looked up): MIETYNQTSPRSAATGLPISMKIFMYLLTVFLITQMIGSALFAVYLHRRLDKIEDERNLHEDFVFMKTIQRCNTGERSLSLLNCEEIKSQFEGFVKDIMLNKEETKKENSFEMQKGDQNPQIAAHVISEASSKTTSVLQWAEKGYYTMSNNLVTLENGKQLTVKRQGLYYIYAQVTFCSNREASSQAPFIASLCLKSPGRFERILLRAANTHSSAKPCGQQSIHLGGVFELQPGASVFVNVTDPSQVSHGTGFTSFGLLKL

[8] = molecular target: CD40L-hFc 단백질 (Sino biological, Accession#: NP_000065.1, Cat: 10239-H01H) (human) (UniProt P29965); assay: competition, flow cytometry: 14D6 pre-mixed with CD40L-hFc (2 μg), binding to CD40 on Bjab cells read

amount at which binding is saturated [1]: > 0.1 µg
binding result [2]: no binding (tested: 0.05μg/test)
concentration at which binding is saturated [3]: > 100 ng/mL
binding result [4]: binds
antibody concentration for complete blocking of SEAP OD 655nm (HEK-Blue CD40L cells), CD40L 12.5ng/ml [5]: > 50 ng/mL
antibody concentration for complete blocking of SEAP OD 655nm (HEK-Blue CD40L cells), CD40L printed as 12.5ng/ml a second time (25ng/ml probably meant) [5]: > 500 ng/mL
ICAM-1 expression on Ramos B cells co-cultured with CD40L CHO cells (flow cytometry) [6]: > 0.5 μg/test
binding result [7]: binds
amount at which blocking equals the negative control [8]: > 0.1 µg
concentration at which binding is saturated [8]: > 0.1 μg/50μl
B1: 14D6-52-5 단일클론항체 (14D6 단클론항체, mouse) (antibody, V domains shown)
VH: QVQLQQSGAELVKPGASVKLSCKASGYTFTRYYMFWVKQRPGQGLEWIGEINPTNGDTNFNEEFKSKATLTVDKSSSTAYMQLSSLTSEDSAVYYCTRPLGSRDAMDYWGPGTSVTVSS
VL: DIVLTQSPASLAVSLGQRATISCRASQSVSSSRYSYMHWYQQKPGQPPKLLIKYASSLESGVPARFSGSGSGTDFTLNIHPVEGEDTATYYCQHSWELPWTFGGGTKLEIK
notes: Mouse monoclonal antibody from a hybridoma (Balb/c mouse immunised with recombinant human CD40L); also called 14D6 마우스항체; Mouse 14D6
